Key:
[1] = test system: patient-derived xenograft (PDX) model; experiment: Anti-tumor effect (TGI) in patient-derived xenograft models, 10 to 15 days after administration; type: in vivo, nu/nu mice; conditions: for TGI (%): 10 mg/kg tail vein; for Proportion of PDX models showing TGI of 75% or more: TGI at 10 to 15 days
Description: Mice: Female nu/nu mice (Envigo) aged 5-8 weeks were acclimatized under SPF conditions for 3 days or more prior to experimental use. Mice were fed with sterile solid feed (Teklad2919, Envigo) and given reverse osmosis membrane-treated water (containing 2 ppm chlorine).
Measurements and Calculation formula: long and short diameters of tumors were measured twice a week with an electronic digital caliper (CD-6PMX, Mitutoyo Corp.) and tumor volume (mm^3) was calculated using the following calculation formula: Tumor volume (mm^3)=0.52×Long diameter (mm)×[Short diameter (mm)]^2
Tumor fragments from each cancer patient were subcutaneously implanted into mice and passaged. The obtained tumors were used to subcutaneously implant tumor fragments, which were cut to approximately 5×5×5 mm^3, into the left abdomen of female nu/nu mice, thereby each patient-derived xenograft (PDX) model was created. Mice were randomly grouped when the mean transplanted tumor volume reached 150 to 300 mm^3 (Day 0). On the same day as grouping, the antibody-drug conjugate (1) was administered into the tail vein at a dose of 10 mg/kg. A formulation buffer was similarly administered at a volume of 10 mL/kg as a negative control.
Data on the amount of gene expression in each PDX model used in Example 4 were obtained by the next-generation RNA sequencing method using RNA extracted from formalin-fixed paraffin-embedded specimens of each tumor. After the obtained data were normalized to a FPKM value, 1 was added to FPKM, and the sum was transformed to a logarithmic (log2) to obtain a log2[FPKM+1] value (Table 6). The log2[FPKM+1] value was used to analyze the relationship between the anti-tumor activity of antibody-drug conjugate (1) in each PDX model (Table 5) and the amount of expression of the hTROP2 gene and the SLFN11 gene.

[2] = test system: relapsed and advanced non-small cell lung cancer; experiment: Phase 1 study, dose escalation part, maximum tumor change rate; type: in vivo, human
Description: In a dose escalation part of a Phase 1 study for patients with relapsed and advanced non-small cell lung cancer, the antibody-drug conjugate (1) was administered intravenously once every three weeks until unacceptable toxicity or worsening of the pathological condition was observed. The dose-limiting toxicity was determined in Cycle 1 (Days 1-21). Tumor sampling was performed after entry into the clinical study following the first dose. Note that a minus value in the maximum tumor change rate means that the tumor has been reduced by administration of antibody-drug conjugate (1).
Gene expression data of each patient were obtained by EdgeSeq after preparing a section from a formalin-fixed paraffin-embedded specimen of tumor tissue of each patient prior to antibody-drug conjugate (1) administration, and cutting out a tumor site by laser microdissection. The obtained count data were normalized by the Median normalization method, thereby the amount of expression of each gene was obtained. All the above tests were performed at HTG Molecular Diagnostics, Inc.
To the Median Normalized Count (MNC) value, after being obtained and normalized at HTG Molecular Diagnostics, Inc., 1 was added, and the sum was transformed to a logarithmic (log2) to obtain a log2[MNC+1] value (Table 15). The log2[MNC+1] value was used to analyze the relationship between the anti-tumor activity of antibody-drug conjugate (1) in each patient (Table 14) and the amount of expression of the hTROP2 gene and the SLFN11 gene. When all of the evaluated patients were grouped into groups having at least a certain amount of expression of the hTROP2 and SLFN11 genes (Table 16), it was shown that the proportion of patients showing at least a certain drug efficacy (maximum tumor change rate of 0% or less) is higher as the hTROP2 gene expression and the SLFN11 gene expression increases (Table 17). In the absence of grouping by SLFN11 gene expression, the proportion of patients showing the maximum tumor change rate of 0% or less was not more than 75 to 80%. […] For example, when the log2[MNC+1] value of the hTROP2 gene exceeds 12 and the log2[MNC+1] value of the SLFN11 gene exceeds 11.5, the proportion of patients in which the maximum tumor change rate is 0% or less is about 80% to 100%.

B1: antibody-drug conjugate (1): humanized anti-hTROP2 antibody (SEQ ID NO: 1 residues 20-470, SEQ ID NO: 2 residues 21-234) conjugated to the exatecan-derivative drug-linker via a thioether bond (conjugate, chains of the INN, looked up)
VH: QVQLVQSGAEVKKPGASVKVSCKASGYTFTTAGMQWVRQAPGQGLEWMGWINTHSGVPKYAEDFKGRVTISADTSTSTAYLQLSSLKSEDTAVYYCARSGFGSSYWYFDVWGQGTLVTVSS
VL: DIQMTQSPSSLSASVGDRVTITCKASQDVSTAVAWYQQKPGKAPKLLIYSASYRYTGVPSRFSGSGSGTDFTLTISSLQPEDFAVYYCQQHYITPLTFGQGTKLEIK
modifications: exatecan-derivative drug-linker
With B1 the “TGI (%)” value ([1]; PDX model #1, Breast, Day 14) was 95.2%, the “TGI (%)” value ([1]; PDX model #2, Lung, Day 14) was 68.3% and the “TGI (%)” value ([1]; PDX model #3, Cholangiocarcinoma, Day 14) was 22.2%. For the same molecule, the “TGI (%)” value ([1]; PDX model #4, Pancreatic, Day 14) was 21.8%, the “TGI (%)” value ([1]; PDX model #5, Colorectal, Day 14) was 41.7% and the “TGI (%)” value ([1]; PDX model #6, Breast, Day 14) was 92.4%. The “TGI (%)” value ([1]; PDX model #7, Breast, Day 15) was 87.6%, the “TGI (%)” value ([1]; PDX model #8, Head & neck, Day 14) was 57.9% and the “TGI (%)” value ([1]; PDX model #9, Head & neck, Day 14) was 94.0%. For the same molecule, the “TGI (%)” value ([1]; PDX model #10, Lung, Day 14) was 97.3%, the “TGI (%)” value ([1]; PDX model #11, Lung, Day 14) was 87.4% and the “TGI (%)” value ([1]; PDX model #12, Breast, Day 15) was 90.0%. The “TGI (%)” value ([1]; PDX model #13, Lung, Day 14) was 62.3%, the “TGI (%)” value ([1]; PDX model #14, Breast, Day 14) was 82.7% and the “TGI (%)” value ([1]; PDX model #15, Cholangiocarcinoma, Day 14) was 46.4%. The “TGI (%)” value ([1]; PDX model #16, Colorectal, Day 14) was 26.0%, the “TGI (%)” value ([1]; PDX model #17, Breast, Day 14) was 56.5% and the “TGI (%)” value ([1]; PDX model #18, Lung, Day 14) was 14.6%. The “TGI (%)” value ([1]; PDX model #19, Lung, Day 14) was 28.1%, the “TGI (%)” value ([1]; PDX model #20, Lung, Day 14) was 82.0% and the “TGI (%)” value ([1]; PDX model #21, Lung, Day 14) was 76.6%. For the same molecule, the “TGI (%)” value ([1]; PDX model #22, Lung, Day 14) was 87.9%, the “TGI (%)” value ([1]; PDX model #23, Lung, Day 14) was 4.7% and the “TGI (%)” value ([1]; PDX model #24, Lung, Day 14) was 19.1%. The “TGI (%)” value ([1]; PDX model #25, Pancreatic, Day 14) was 37.9%, the “TGI (%)” value ([1]; PDX model #26, Pancreatic, Day 13) was 62.3% and the “TGI (%)” value ([1]; PDX model #27, Lung, Day 13) was 48.5%. The “TGI (%)” value ([1]; PDX model #28, Breast, Day 14) was 92.6%, the “TGI (%)” value ([1]; PDX model #29, Breast, Day 14) was 97.4% and the “TGI (%)” value ([1]; PDX model #30, Lung, Day 10) was 84.7%. The “TGI (%)” value ([1]; PDX model #31, Colorectal, Day 14) was 58.4%, the “TGI (%)” value ([1]; PDX model #32, Lung, Day 13) was 64.9% and the “TGI (%)” value ([1]; PDX model #33, Lung, Day 14) was 25.0%. The “TGI (%)” value ([1]; PDX model #34, Lung, Day 13) was 89.7%, the “TGI (%)” value ([1]; PDX model #35, Lung, Day 14) was −0.4% and the “Proportion of PDX models showing TGI of 75% or more” value ([1]; log2[FPKM+1]: hTROP2 >4.0, SLFN11 >1, 21 models) was 57%. The “Proportion of PDX models showing TGI of 75% or more” value ([1]; log2[FPKM+1]: hTROP2 >4.0, SLFN11 >2, 15 models) was 60%, the “Proportion of PDX models showing TGI of 75% or more” value ([1]; log2[FPKM+1]: hTROP2 >4.0, SLFN11 >3, 9 models) was 67% and the “Proportion of PDX models showing TGI of 75% or more” value ([1]; log2[FPKM+1]: hTROP2 >4.0, SLFN11 All models, 32 models) was 44%. For the same molecule, the “Proportion of PDX models showing TGI of 75% or more” value ([1]; log2[FPKM+1]: hTROP2 >5.0, SLFN11 >1, 18 models) was 56%, the “Proportion of PDX models showing TGI of 75% or more” value ([1]; log2[FPKM+1]: hTROP2 >5.0, SLFN11 >2, 13 models) was 62% and the “Proportion of PDX models showing TGI of 75% or more” value ([1]; log2[FPKM+1]: hTROP2 >5.0, SLFN11 >3, 7 models) was 71%. The “Proportion of PDX models showing TGI of 75% or more” value ([1]; log2[FPKM+1]: hTROP2 >5.0, SLFN11 All models, 29 models) was 41%, the “Proportion of PDX models showing TGI of 75% or more” value ([1]; log2[FPKM+1]: hTROP2 >6.0, SLFN11 >1, 17 models) was 59% and the “Proportion of PDX models showing TGI of 75% or more” value ([1]; log2[FPKM+1]: hTROP2 >6.0, SLFN11 >2, 12 models) was 67%. The “Proportion of PDX models showing TGI of 75% or more” value ([1]; log2[FPKM+1]: hTROP2 >6.0, SLFN11 >3, 6 models) was 83%, the “Proportion of PDX models showing TGI of 75% or more” value ([1]; log2[FPKM+1]: hTROP2 >6.0, SLFN11 All models, 25 models) was 48% and the “Proportion of PDX models showing TGI of 75% or more” value ([1]; log2[FPKM+1]: hTROP2 >7.0, SLFN11 >1, 11 models) was 64%. The “Proportion of PDX models showing TGI of 75% or more” value ([1]; log2[FPKM+1]: hTROP2 >7.0, SLFN11 >2, 7 models) was 86%, the “Proportion of PDX models showing TGI of 75% or more” value ([1]; log2[FPKM+1]: hTROP2 >7.0, SLFN11 >3, 4 models) was 100% and the “Proportion of PDX models showing TGI of 75% or more” value ([1]; log2[FPKM+1]: hTROP2 >7.0, SLFN11 All models, 16 models) was 50%. For the same molecule, the “Proportion of PDX models showing TGI of 75% or more” value ([1]; log2[FPKM+1]: hTROP2 All models, SLFN11 >1, 24 models) was 54%, the “Proportion of PDX models showing TGI of 75% or more” value ([1]; log2[FPKM+1]: hTROP2 All models, SLFN11 >2, 18 models) was 56% and the “Proportion of PDX models showing TGI of 75% or more” value ([1]; log2[FPKM+1]: hTROP2 All models, SLFN11 >3, 12 models) was 58%. For the same molecule, the “Proportion of PDX models showing TGI of 75% or more” value ([1]; log2[FPKM+1]: hTROP2 All models, SLFN11 All models, 35 models) was 43%, the “Proportion of animal models showing TGI of 75% or more” value ([1]; log2[FPKM+1]: hTROP2 exceeds 7.0 and SLFN11 exceeds 3.0) was 100% and the “Maximum tumor change rate (%)” value ([2]; Patient #1, 2 mg/kg intravenously once every three weeks) was −7.14%. The “Maximum tumor change rate (%)” value ([2]; Patient #2, 2 mg/kg intravenously once every three weeks) was −68.52%, the “Maximum tumor change rate (%)” value ([2]; Patient #3, 2 mg/kg intravenously once every three weeks) was −4.76% and the “Maximum tumor change rate (%)” value ([2]; Patient #4, 2 mg/kg intravenously once every three weeks) was −11.70%. The “Maximum tumor change rate (%)” value ([2]; Patient #5, 2 mg/kg intravenously once every three weeks) was 52.00%, the “Maximum tumor change rate (%)” value ([2]; Patient #6, 2 mg/kg intravenously once every three weeks) was 3.15% and the “Maximum tumor change rate (%)” value ([2]; Patient #7, 4 mg/kg intravenously once every three weeks) was 33.33%. The “Maximum tumor change rate (%)” value ([2]; Patient #8, 4 mg/kg intravenously once every three weeks) was −53.13%, the “Maximum tumor change rate (%)” value ([2]; Patient #9, 6 mg/kg intravenously once every three weeks) was −52.27% and the “Maximum tumor change rate (%)” value ([2]; Patient #10, 8 mg/kg intravenously once every three weeks) was −3.47%. For the same molecule, the “Maximum tumor change rate (%)” value ([2]; Patient #11, 8 mg/kg intravenously once every three weeks) was −35.46%, the “Maximum tumor change rate (%)” value ([2]; Patient #12, 8 mg/kg intravenously once every three weeks) was −63.64% and the “Proportion of patients showing a maximum tumor change rate of 0% or less” value ([2]; log2[MNC+1]: hTROP2 >12, SLFN11 >11.5, 8 patients) was 88%. For the same molecule, the “Proportion of patients showing a maximum tumor change rate of 0% or less” value ([2]; log2[MNC+1]: hTROP2 >12, SLFN11 >12.5, 4 patients) was 100%, the “Proportion of patients showing a maximum tumor change rate of 0% or less” value ([2]; log2[MNC+1]: hTROP2 >12, SLFN11 All, 9 patients) was 78% and the “Proportion of patients showing a maximum tumor change rate of 0% or less” value ([2]; log2[MNC+1]: hTROP2 >14, SLFN11 >11.5, 5 patients) was 80%. The “Proportion of patients showing a maximum tumor change rate of 0% or less” value ([2]; log2[MNC+1]: hTROP2 >14, SLFN11 >12.5, 2 patients) was 100%, the “Proportion of patients showing a maximum tumor change rate of 0% or less” value ([2]; log2[MNC+1]: hTROP2 >14, SLFN11 All, 5 patients) was 80% and the “Proportion of patients showing a maximum tumor change rate of 0% or less” value ([2]; log2[MNC+1]: hTROP2 All, SLFN11 >11.5, 11 patients) was 82%. For the same molecule, the “Proportion of patients showing a maximum tumor change rate of 0% or less” value ([2]; log2[MNC+1]: hTROP2 All, SLFN11 >12.5, 5 patients) was 100% and the “Proportion of patients showing a maximum tumor change rate of 0% or less” value ([2]; log2[MNC+1]: hTROP2 All, SLFN11 All, 12 patients) was 75%.
